From patent US20220396632A1 (VERSEAU THERAPEUTICS, published 2022)
Non-standard residues stand in square brackets, D forms with d. No end group written: not given here. *: point of attachment. Biotin = O=C1N[C@H]2[C@H](CS[C@H]2CCCCC(=O)*)N1; sY = N[C@@H](Cc1ccc(OS(=O)(=O)O)cc1)C(=O)O

T1: Recombinant human PSGL-1(ECD)-hFc1 (R&D Systems, Cat. 3345-PS) (human, UniProt Q14242 42-305)
T1 construct: Bought; Gln42-Val295 counted on AAC50061; also called PSGL-1-Fc; PSGL-1-hFc1 chimera; not shown: human IgG1 Fc, Pro100-Lys330
T1 sequence: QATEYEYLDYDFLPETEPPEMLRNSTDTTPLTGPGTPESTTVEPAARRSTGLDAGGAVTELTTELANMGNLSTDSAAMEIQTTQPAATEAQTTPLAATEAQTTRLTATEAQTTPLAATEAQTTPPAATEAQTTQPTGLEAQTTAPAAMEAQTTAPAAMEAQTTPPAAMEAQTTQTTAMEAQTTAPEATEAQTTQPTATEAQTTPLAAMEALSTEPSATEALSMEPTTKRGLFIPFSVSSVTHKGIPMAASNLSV

T2: Human PSGL-1(ECD)-HIS (human, UniProt Q14242 42-319)
T2 construct: also called Human PSGL-1-His
T2 sequence: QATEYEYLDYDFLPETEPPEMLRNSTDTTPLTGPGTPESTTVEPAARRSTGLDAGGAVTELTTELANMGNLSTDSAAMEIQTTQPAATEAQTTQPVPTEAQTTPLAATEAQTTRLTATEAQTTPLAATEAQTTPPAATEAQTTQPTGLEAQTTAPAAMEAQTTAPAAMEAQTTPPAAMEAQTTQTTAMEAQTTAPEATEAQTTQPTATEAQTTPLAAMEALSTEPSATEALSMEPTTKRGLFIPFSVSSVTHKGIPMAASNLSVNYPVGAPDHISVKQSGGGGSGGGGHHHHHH

T3: Biotin PSGL-1(290-310) peptide (human, N-terminal acetyl; C-terminal Lys-biotin)
T3 peptide: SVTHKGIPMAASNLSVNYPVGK

T4: 42-80 (C-terminal Lys-biotin)
T4 construct: also called Biotin PSGL-1(42-80) peptide
T4 peptide: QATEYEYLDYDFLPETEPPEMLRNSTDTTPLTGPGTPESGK

T5: Biotin PSGL-1(105-125) peptide (human, N-terminal acetyl; C-terminal Lys-biotin)
T5 peptide: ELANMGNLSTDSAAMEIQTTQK

T6: Biotin PSGL-1(42-62) peptide, unmodified (human, C-terminal Lys-biotin)
T6 construct: Residues 42-62 followed by GGGK-biotin; also called WT; wild-type
T6 peptide: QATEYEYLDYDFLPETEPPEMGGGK

T7: PSGL-1(42-62) N-terminal peptide, sulfation state not told at the place (human, not fully specified; sulfation of Y46, Y48, Y51 not stated for these table columns)
T7 peptide: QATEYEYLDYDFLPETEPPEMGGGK

T8: Biotin Y46,48,51(SO3) PSGL-1(42-62) peptide (human, sulfotyrosine at Y46, Y48 and Y51; C-terminal Lys-biotin)
T8 construct: also called fully sulfated N-terminal PSGL-1 peptide
T8 peptide: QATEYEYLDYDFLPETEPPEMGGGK

T9: Sulfotyrosine CCR2b biotin peptide (human)
T9 construct: also called CCR2b peptide
T9 peptide: TTFFD[sY]D[sY]GAPSHGGK(Biotin)

B1: 18F17 (antibody, V domains shown)
VH: QVTLKESGPGILQPSQTLSLTCSFSGFSLSTFGMGVGWIRQPSGKGLEWLAHIWWDDDKYYNPALKSRLTISKDTSKNQVFLKIANVDTADTATYYCAIYYDYGVGFDYWGQGTTLTVSS
VL: DIVMTQAAPSVPVTPGESVSISCRSSKSLLHSNGYTFLYWFLQRPGQSPQLLIYRMSNLASGVPDRFSGSGSGTAFTLRISRVEAEDVGVYYCMQHLEYPFTFGTGTKLEIK
notes: Non-functional anti-PSGL-1 mAb (Verseau); only variable domains given
B2: 19J23 (antibody, V domains shown)
VH: EVKLVESGGGLVQPGGSLSLSCAASGFTFTDYYMSWVRQPPGKALEWLALIRNKANGYTTEYSASVKGRFTISRDDSQSILYLQVNALRAEDVATYYCARPWDYWGQGTTLTVSS
VL: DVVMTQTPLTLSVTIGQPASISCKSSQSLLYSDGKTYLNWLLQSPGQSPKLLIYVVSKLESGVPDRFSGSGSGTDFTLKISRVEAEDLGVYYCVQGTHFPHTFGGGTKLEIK
notes: as for B1
B3: 15A7 (antibody, V domains shown)
VH: EVQLVESGGGLVQPGGSLRLSCAASGFTFSSFGMHWVRQAPGKGLEWVAYINGGSSTIFYANAVKGRFTISRDNAKNTLYLQMNSLRAEDTAVYYCARYASYGGGAMDYWGQGTLVTVSS
VL: DIQMTQSPSSLSASVGDRVTITCRSSQSIVHNDGNTYFEWYQQKPGKAPKLLIYKVSNRFSGVPSRFSGSGSGTHFTLTISSLQPEDFATYYCFQGSYVPLTFGQGTKVEIK
notes: Control mAb, recombinant; also called h15A7; 15A17
B4: 06G08 (antibody, IgG4, V domains shown)
VH: EVKLLESGGGVVQPGGSLRLSCAVSGFTFSNYAMHWVRQAPGKGLEWVAVISFDGSNKYTADSVQGRFTISRDNSKNTLYLQMNSLTPEDTAVYYCASRIIRTVAGGDYWGQGTLVTVSS
VL: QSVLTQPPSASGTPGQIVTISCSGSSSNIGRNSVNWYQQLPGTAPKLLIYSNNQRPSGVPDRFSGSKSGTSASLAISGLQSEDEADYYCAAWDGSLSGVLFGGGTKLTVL

Assays:
[1] = biological target: T1, Recombinant human PSGL-1(ECD)-hFc1 (R&D …); assay: Octet tandem; competitor 15A7
Procedure: (§1) Antibody binning was performed by ForteBio Octet® using a tandem assay format, with anti-human IgG biosensor-immobilized PSGL-1(ECD)-hFc1 protein, binding of competitor mAb followed by analyte antibody. As competition controls, the same antibody was competed against itself, and mAb competition was performed bidirectionally.
(§2) Antibody binning by tandem octet was performed by immobilizing 10 ug/mL PSGL-1(ECD)-hFc1 (R&D Systems, Cat. #3345-PS) in PBS, pH 7.4, onto anti-human IgG capture biosensors (ForteBio, Cat. #18-5060), binding of 100 nM competitor antibody for 300 sec., followed by binding of 100 nM of analyte mAb for 300 s in kinetic buffer (0.1% BSA in PBS containing 0.02% tween 20 and 0.05% sodium azide, pH 7.4). Synagis (Johnson et al. (1997) J. Infect. Dis. 176:1215-1224) served as a negative control mAb for competition. An Fc quench step (0.25 mg/mL human IgG Fcl; BioXcell, Cat. #BE0096, in kinetic buffer) was included when human mAbs were tested to prevent high background from the antibodies binding to the anti-human IgG biosensor. Biosensor regeneration buffer consisted of 10 mM glycine, pH 2.0.

[2] = biological target: T1, Recombinant human PSGL-1(ECD)-hFc1 (R&D …); assay: Octet tandem; competitor 18F17
Procedure: as §1, §2

[3] = biological target: T2, Human PSGL-1(ECD)-HIS; assay: ELISA, plate-immobilized protein
[4] = biological target: T1, Recombinant human PSGL-1(ECD)-hFc1 (R&D …); assay: Octet tandem; competitor 18K07
Procedure: as §1, §2

[5] = biological target: T1, Recombinant human PSGL-1(ECD)-hFc1 (R&D …); assay: Octet tandem; competitor 19J23
Procedure: as §1, §2

[6] = biological target: T1, Recombinant human PSGL-1(ECD)-hFc1 (R&D …); assay: Octet tandem; competitor 19L04
Procedure: as §1, §2

[7] = biological target: T1, Recombinant human PSGL-1(ECD)-hFc1 (R&D …); assay: Octet tandem; competitor 16E17
Procedure: as §1, §2

[8] = biological target: PSGL-1(ECD)-hFc1 M119A protein (Sino Biological) (human); assay: ELISA, plate-bound peptide or protein
Procedure: (§3) A typical ELISA experiment involved binding of a single concentration or serially diluted mAb in assay buffer (3% BSA in PBS containing 0.05% Tween®20, pH 7.4) onto BSA blocked high binding microtiter plate half-wells (Corning Cat. #3690), which contained PSGL-1 protein or streptavidin-immobilized biotin peptide. After incubation for 45 min. at 37° C., the plate was washed 3 times with wash buffer (PBS containing 0.05% Tween®20, pH 7.4), and an appropriate HRP-conjugated secondary antibody added (25 ul/well) (HRP goat anti-mouse or anti-human IgG). After 45 min. incubation at 37° C., the plate was washed and antibody bound to plate-immobilized target was determined at A450 nm using HRP substrate (3,3′5,5′-tetramethylbenzidine (TMB)). For each antibody, duplicate values were averaged and assay background subtracted.

[9] = biological target: PSGL-1(ECD)-hFc1 S116A protein (Sino Biological) (human); assay: ELISA, plate-bound peptide or protein
Procedure: as §3

[10] = biological target: T3, Biotin PSGL-1(290-310) peptide; assay: ELISA, plate-bound peptide or protein
Procedure: as §3

[11] = biological target: PSGL-1(ECD)-hFc1 I121A protein (Sino Biological) (human); assay: ELISA, plate-bound peptide or protein
Procedure: as §3

[12] = biological target: T4, 42-80; assay: ELISA, streptavidin-immobilized biotin peptide
Procedure: as §3

[13] = biological target: T5, Biotin PSGL-1(105-125) peptide; assay: ELISA, streptavidin-immobilized biotin peptide
Procedure: as §3

[14] = biological target: T6, Biotin PSGL-1(42-62) peptide, unmodified; assay: ELISA, streptavidin-immobilized biotin peptide
Procedure: as §3

[15] = biological target: T1, Recombinant human PSGL-1(ECD)-hFc1 (R&D …); assay: Octet tandem; competitor 20G13
Procedure: as §1, §2

[16] = biological target: PSGL-1(ECD)-hFc1 M119A protein (Sino Biological) (human); assay: ELISA; against WT PSGL-1(ECD)-hFc1
Procedure: as §3

[17] = biological target: PSGL-1(ECD)-hFc1 S116A protein (Sino Biological) (human); assay: ELISA; against WT PSGL-1(ECD)-hFc1
Procedure: as §3

[18] = biological target: T3, Biotin PSGL-1(290-310) peptide; assay: ELISA; against WT PSGL-1(ECD)-hFc1
Procedure: as §3

[19] = biological target: PSGL-1(ECD)-hFc1 I121A protein (Sino Biological) (human); assay: ELISA; against WT PSGL-1(ECD)-hFc1
Procedure: as §3

[20] = biological target: T1, Recombinant human PSGL-1(ECD)-hFc1 (R&D …); assay: Octet tandem; competitor 19N05
Procedure: as §1, §2

[21] = biological target: T1, Recombinant human PSGL-1(ECD)-hFc1 (R&D …); assay: ELISA, plate-immobilized protein
[22] = biological target: T1, Recombinant human PSGL-1(ECD)-hFc1 (R&D …); assay: blocking ELISA vs VISTA-Fc, pH 6.0
[23] = biological target: T1, Recombinant human PSGL-1(ECD)-hFc1 (R&D …); assay: blocking ELISA vs P-selectin-Fc
Procedure: (§4) A typical selectin blocking ELISA assay involved coating high binding half-well plates (Corning, Cat. #3690) with 2.5 ug/mL/25 ul per well of recombinant PSGL-1-Fc protein (R&D Systems, Cat #3345-PS) in PBS, pH 7.4, overnight at 4° C. […] Antibody (test and controls) was serially diluted (25 ul/well) in duplicate in assay buffer (3% BSA in wash buffer) into appropriate wells and the plate incubated for 45 min at 37° C. […] The plate was washed ×3 and HRP-conjugated streptavidin was added in assay buffer [25 ul per well; (Jackson Immunoresearch, Cat. #016-030-084)] and the plate incubated for 45 min at 37° C. […] For each antibody, an IC50 value was determined from sigmoidal fitted titration curves.

[24] = biological target: T5, Biotin PSGL-1(105-125) peptide; assay: ELISA, plate-bound peptide or protein
Procedure: as §3

[25] = biological target: T7, PSGL-1(42-62) N-terminal peptide, …; assay: mAb binding to PSGL-1(42-62)
[26] = biological target: T5, Biotin PSGL-1(105-125) peptide; assay: ELISA; against WT PSGL-1(ECD)-hFc1
Procedure: as §3

[27] = biological target: T1, Recombinant human PSGL-1(ECD)-hFc1 (R&D …); assay: blocking ELISA vs L-selectin-Fc
Procedure: as §4

[28] = biological target: T8, Biotin Y46,48,51(SO3) PSGL-1(42-62) …; assay: ELISA, plate-bound peptide
[29] = biological target: T9, Sulfotyrosine CCR2b biotin peptide; assay: ELISA, plate-bound peptide

PSGL-1(ECD)-hFc1 I121A protein (Sino Biological) (human), sequence (chain, as listed by the source I121A I121A): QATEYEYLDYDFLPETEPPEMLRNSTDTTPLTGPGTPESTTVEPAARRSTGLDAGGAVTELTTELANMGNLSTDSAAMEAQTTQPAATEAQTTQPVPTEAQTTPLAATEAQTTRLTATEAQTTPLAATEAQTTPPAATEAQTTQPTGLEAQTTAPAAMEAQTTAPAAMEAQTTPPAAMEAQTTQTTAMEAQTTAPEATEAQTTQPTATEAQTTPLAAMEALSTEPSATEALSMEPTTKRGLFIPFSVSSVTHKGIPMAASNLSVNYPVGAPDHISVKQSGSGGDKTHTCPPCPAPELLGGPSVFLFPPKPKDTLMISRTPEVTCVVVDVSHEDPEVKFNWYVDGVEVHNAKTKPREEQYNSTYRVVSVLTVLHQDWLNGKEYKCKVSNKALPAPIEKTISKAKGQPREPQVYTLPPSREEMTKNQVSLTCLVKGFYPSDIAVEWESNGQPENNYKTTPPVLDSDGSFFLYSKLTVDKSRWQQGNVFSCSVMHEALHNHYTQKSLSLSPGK
PSGL-1(ECD)-hFc1 S116A protein (Sino Biological) (human), sequence (chain, as listed by the source S116A S116A): as the sequence (chain, as listed by the source I121A I121A) above, with S75A, A80I counted along it

| Binder | % binding of analyte mAb [1] [%] | % binding of analyte mAb [2] [%] | EC50 (read off the curve) [3] [nM] | % binding of analyte mAb [4] [%] | % binding of analyte mAb [5] [%] | % binding of analyte mAb [6] [%] | % binding of analyte mAb [7] [%] | EC50 [8] [nM] | EC50 [9] [nM] | EC50 [10] [nM] | EC50 [11] [nM] | % binding of analyte mAb [15] [%] | EC50/EC50WTprot [16] [fold] | EC50/EC50WTprot [17] [fold] | EC50/EC50WTprot [18] [fold] | EC50/EC50WTprot [19] [fold] | % binding of analyte mAb [20] [%] | other results |
| --- | --- | --- | --- | --- | --- | --- | --- | --- | --- | --- | --- | --- | --- | --- | --- | --- | --- | --- |
| B1 | 61.9 | 28.2 | ~0.7 | 90.7 | 26.9 | 68.7 | 124 | 0.6 | 0.54 | < 0.5 | 0.55 | 22 | 0.74 | 0.67 | < 1 | 0.68 | 84.2 | binding result [12]: no binding (tested: 10 nM); binding result [13]: no binding (tested: 10 nM); binding result [14]: no binding (tested: 10 nM) |
| B2 | 84.9 | 52.1 | ~0.9 | 100 | 29.2 | 68.9 | 93.3 |  |  | 2.19 |  | 55.9 |  |  | 3.1 |  | 76.6 | binding result [21]: no binding (tested: Log M -7.4 (about 40 nM)) |
| B3 | 28.3 | 86.6 |  | 91.5 | 94.3 | 48 | 56.2 | ~10 | 0.25 |  | ~20 | 15.1 | ~30 | 0.78 |  | ~60 | 46.2 | % max Block [22]: 0%; % max Block [23]: 0%; EC50 [24]: 4.31 nM; binding result [25]: no binding; EC50/EC50WTprot [26]: 7.18 fold; % max Block [27]: 0% |
| B4 |  |  |  |  |  |  |  |  |  |  |  |  |  |  |  |  |  | EC50 [28]: 0.71 nM; binding result [29]: no binding (tested: 20 nM) |
